Source: patent US20210238253A1 (GUANGDONG ZHAOTAI INVIVO BIOMEDICINE, published 2021)

T1: hCD19-his (human CD19 recombinant protein, Pro20-Lys291, His tag at C-terminus) (human, UniProt P15391 20-291)
T1 construct: range 20-291; also called human CD19-His
T1 sequence (looked up): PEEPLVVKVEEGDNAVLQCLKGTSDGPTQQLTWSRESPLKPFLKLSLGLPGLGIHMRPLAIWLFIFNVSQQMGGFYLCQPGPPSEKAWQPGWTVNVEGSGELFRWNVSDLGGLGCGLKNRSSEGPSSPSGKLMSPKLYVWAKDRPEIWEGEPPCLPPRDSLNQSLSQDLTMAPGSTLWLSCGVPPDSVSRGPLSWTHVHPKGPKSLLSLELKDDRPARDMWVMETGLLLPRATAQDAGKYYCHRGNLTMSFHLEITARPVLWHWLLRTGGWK

T2: hVISTA-his (human, UniProt Q9H7M9 33-194)
T2 construct: Coated antigen of the specificity ELISA
T2 sequence (looked up): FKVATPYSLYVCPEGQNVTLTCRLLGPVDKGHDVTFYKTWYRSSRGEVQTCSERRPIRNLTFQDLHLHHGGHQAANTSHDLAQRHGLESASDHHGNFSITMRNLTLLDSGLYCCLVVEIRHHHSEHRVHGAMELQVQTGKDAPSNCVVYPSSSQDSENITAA

T3: hLAG3 (human, UniProt P18627 23-450, limits assumed)
T3 construct: Coated antigen of the specificity ELISA
T3 sequence (looked up): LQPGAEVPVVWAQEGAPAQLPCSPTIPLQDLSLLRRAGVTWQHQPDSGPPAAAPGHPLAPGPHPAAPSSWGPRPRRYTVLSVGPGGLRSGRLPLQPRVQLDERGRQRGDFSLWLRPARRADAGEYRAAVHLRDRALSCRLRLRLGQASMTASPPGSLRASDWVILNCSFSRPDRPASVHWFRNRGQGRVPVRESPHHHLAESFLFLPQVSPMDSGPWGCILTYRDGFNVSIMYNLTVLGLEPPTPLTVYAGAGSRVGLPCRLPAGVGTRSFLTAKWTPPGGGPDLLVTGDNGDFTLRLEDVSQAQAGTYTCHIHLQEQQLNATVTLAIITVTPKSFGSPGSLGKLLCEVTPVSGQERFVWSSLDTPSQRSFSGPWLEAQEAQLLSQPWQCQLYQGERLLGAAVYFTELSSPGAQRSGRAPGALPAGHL

T4: CD19 expressed by Nalm6 cells (UniProt P15391 20-556, limits assumed)
T4 construct: whole, on cells; Endogenous CD19 on tumor cell lines; also called Nalm6/GL; CD19 antigen on RAJI-GL and NALM6-GL tumor cells
T4 sequence (looked up): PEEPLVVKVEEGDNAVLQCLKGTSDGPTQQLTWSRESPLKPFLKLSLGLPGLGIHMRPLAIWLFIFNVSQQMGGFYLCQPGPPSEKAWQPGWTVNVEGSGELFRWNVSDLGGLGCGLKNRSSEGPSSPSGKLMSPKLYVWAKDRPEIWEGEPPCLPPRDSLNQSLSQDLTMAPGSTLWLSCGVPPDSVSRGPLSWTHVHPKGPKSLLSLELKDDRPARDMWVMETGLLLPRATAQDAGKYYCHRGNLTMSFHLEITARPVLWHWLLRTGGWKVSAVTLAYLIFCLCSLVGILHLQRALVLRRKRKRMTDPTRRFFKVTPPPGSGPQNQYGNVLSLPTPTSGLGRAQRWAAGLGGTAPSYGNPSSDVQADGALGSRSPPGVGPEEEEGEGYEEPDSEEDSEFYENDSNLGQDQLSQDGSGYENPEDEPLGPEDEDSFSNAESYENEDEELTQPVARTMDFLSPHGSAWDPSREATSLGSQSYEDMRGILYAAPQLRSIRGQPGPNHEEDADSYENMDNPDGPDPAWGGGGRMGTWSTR

T5: CD19 expressed by Nalm6 cells (UniProt P15391 20-556)
T5 chain: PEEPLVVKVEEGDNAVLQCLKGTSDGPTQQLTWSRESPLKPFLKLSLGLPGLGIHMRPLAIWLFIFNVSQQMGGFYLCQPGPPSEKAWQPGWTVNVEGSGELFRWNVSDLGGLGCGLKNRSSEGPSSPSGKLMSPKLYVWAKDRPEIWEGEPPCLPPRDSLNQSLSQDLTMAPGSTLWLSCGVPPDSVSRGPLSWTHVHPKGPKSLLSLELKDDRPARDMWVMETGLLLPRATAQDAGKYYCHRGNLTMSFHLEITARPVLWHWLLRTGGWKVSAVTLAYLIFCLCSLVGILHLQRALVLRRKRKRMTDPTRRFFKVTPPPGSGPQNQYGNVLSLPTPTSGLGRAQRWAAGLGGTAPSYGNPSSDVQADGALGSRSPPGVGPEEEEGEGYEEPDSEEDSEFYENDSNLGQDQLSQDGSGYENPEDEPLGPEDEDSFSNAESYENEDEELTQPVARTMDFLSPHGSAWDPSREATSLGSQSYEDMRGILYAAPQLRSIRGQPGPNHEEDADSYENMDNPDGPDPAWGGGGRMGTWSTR


Legend:
[1] = target: T1, hCD19-his (human CD19 recombinant …); assay: ELISA, coated hCD19-His
Procedure: The antibodies were screened by ELISA according to Example 2. Briefly, […] of hCD19-His (ACRO) were spread and incubated. The purified antibodies were serially diluted to bind the incubated antigen. The binding signal of each antibody could be detected with HRP-labeled goat anti-rat Fc antibody.
Graphpad Prism software was used to calculate the fitting data.

hVISTA-his = target: T2, hVISTA-his; assay: ELISA, coated antigen 0.5 µg/ml
Procedure: (§1) According to the method described in Example 4, 0.5 μg/ml of hCD19-His, hVISTA-his, hPD-L1, hCD40, h41BB and hLAG3 were spread and incubated respectively, and 2μg/ml of purified antibodies were added to bind the incubated antigen. The binding signal of each antibody could be detected with HRP-labeled goat anti-rat Fc antibody.

hPD-L1 = target: T6, hPD-L1 (human, UniProt Q9NZQ7 19-238, limits assumed); assay: ELISA, coated antigen 0.5 µg/ml
T6 construct: Coated antigen of the specificity ELISA
Procedure: as §1

hCD40 = target: T7, hCD40 (human, UniProt P25942 21-193); assay: ELISA, coated antigen 0.5 µg/ml
T7 construct: Coated antigen of the specificity ELISA
Procedure: as §1

h41BB = target: T8, h41BB (human, UniProt Q07011 24-186); assay: ELISA, coated antigen 0.5 µg/ml
T8 construct: Coated antigen of the specificity ELISA
Procedure: as §1

hLAG3 = target: T3, hLAG3; assay: ELISA, coated antigen 0.5 µg/ml
Procedure: as §1

[2] = target: T4, CD19 expressed by Nalm6 cells; assay: flow cytometry on Nalm6 cells
Procedure: The CD19-expressing tumor cells Nalm6 in logarithmic growth phase were collected and resuspended in PBS at a cell density of 10⁵/well, 100 μl/well. The diluted CD19 antibodies were added into the well and incubated at 4° C. for 1 hour. The cells were washed three times with flow cytometry wash buffer. Anti-rat IgG-Alexa Fluor 647 (Abcam, Cat #ab150163) was added and incubated at 4° C. for 1 hour. The cells were washed three times with flow cytometry wash buffer. The samples were analyzed by flow cytometry. The results are shown in FIG. 3 and Table 4, as follows: […]

[3] = target: T5, CD19 expressed by Nalm6 cells; assay: flow cytometry

T6 sequence (Q9NZQ7 19-238 limits assumed): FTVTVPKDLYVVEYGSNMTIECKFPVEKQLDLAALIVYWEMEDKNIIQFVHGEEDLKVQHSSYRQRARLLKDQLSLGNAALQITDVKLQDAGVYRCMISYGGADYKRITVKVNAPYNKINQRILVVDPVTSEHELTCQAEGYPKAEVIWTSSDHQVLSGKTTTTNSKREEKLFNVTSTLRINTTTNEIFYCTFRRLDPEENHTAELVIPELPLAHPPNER
T7 sequence (P25942 21-193 limits assumed): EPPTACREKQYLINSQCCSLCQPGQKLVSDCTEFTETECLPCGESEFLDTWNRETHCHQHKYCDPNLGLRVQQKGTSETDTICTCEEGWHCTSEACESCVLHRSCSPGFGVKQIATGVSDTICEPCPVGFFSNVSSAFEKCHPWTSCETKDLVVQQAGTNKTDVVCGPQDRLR

| EC50 [1] | binding result (hVISTA-his) | binding result (hPD-L1) | binding result (hCD40) | binding result (h41BB) | binding result (hLAG3) | Maximum mean fluorescence intensity (30 µg/ml) [2] | EC50 [3] | Binder |
| --- | --- | --- | --- | --- | --- | --- | --- | --- |
| 0.0672 µg/mL | no binding (tested: 2 µg/ml) | no binding (tested: 2 µg/ml) | no binding (tested: 2 µg/ml) | no binding (tested: 2 µg/ml) | no binding (tested: 2 µg/ml) | 30000 | 57.3 µg/mL | 27F11 (hybridoma antibody) (antibody, V domains shown, hybridoma mAb from H2L2 mouse (human variable, rat constant regions)) VH: QVQLVESGGGVVQPGRSLRLSCAASGFTFSRHGMHWVRQAPGKGLEWVAVIYYDGSNKYYVDSVKGRFTISRDNSKNTLDLQMNSLRAEDTAVYYCARRSITWNGAFDIWGQGTMVTVSS VL: DIQMTQSPSTLSASVGDRVTISCRASQSISSWLAWYQQKPGKAPKLLIYKASSLESGVPSRFSGSGSGTEFTLTISSLQPDDFATYYCQQYNSAYTFGQGTKLEIK |
| 0.176 µg/mL | no binding (tested: 2 µg/ml) | no binding (tested: 2 µg/ml) | no binding (tested: 2 µg/ml) | no binding (tested: 2 µg/ml) | no binding (tested: 2 µg/ml) | 25500 | 36.9 µg/mL | 17B6 (hybridoma antibody) (antibody, V domains shown, hybridoma mAb from H2L2 mouse (human variable, rat constant regions)) VH: QVQLVESGGGVVQPGRSLRLSCEASGFTFSRHGMHWVRQAPGKGLEWVAVIFYDGSQNYYADSVRGRFTISRDNSKNTLSLQMDSLRAEDTAVYYCARRSITWNGGFDIWGQGTMVTVSP VL: DIQMTQSPSTLSASVGDRVTITCRASQSISSWLAWYQQKPGKAPKLLIYKASSLESGVPSRFSGSGSGTEFTLAISSLQPDDFATYYCQQYNRFYTFGQGTKLEIK |
| 0.0592 µg/mL | no binding (tested: 2 µg/ml) | no binding (tested: 2 µg/ml) | no binding (tested: 2 µg/ml) | no binding (tested: 2 µg/ml) | no binding (tested: 2 µg/ml) | 5160 | 1.87 µg/mL | 52F9 (hybridoma antibody) (antibody, V domains shown, hybridoma mAb from H2L2 mouse (human variable, rat constant regions)) VH: QVQLVESGGGVVQAGRSLRLSCAASGFTFSNYGIHWVRQAPGKGLEWVGVIWHDGSIKNYADFVKGRFTISRDNSEDTLYLQMNSLRAEDTAVYYCAREQGNYYGWGSYKAFDIWGQGTMVTVSS VL: DIQLTQSPSFLSVFVGDRVTITCRASQGISNYLAWYQQKPGKAPELLLYATSTLQSGVPSRLSGSGSGTEFTLTLSSLQPEDFATYYCQQVYSFPYTFGQGTKLEIK |
